{"source": "the nanobody polyreactivity screen of Harvey et al. (2022)"}
{"experiment": "yeast display, Sf9 membrane polyspecificity reagent, FACS + sequencing; frameworks hold sequencing errors", "outline": "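Genes from sorted yeast were amplified by colony PCR, read by MiSeq 2 × 250 sequencing and filtered on CDR length. These cells carried a synthetic nanobody library in Saccharomyces cerevisiae BJ5465 and were sorted by FACS into low and high (top ~1%) gates on anti-HA and streptavidin fluorescence. Polyreactivity is labelled according to the gate of origin.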"}
{"sequence": "QVQLLESGGGLVQAGGSLRLSCAASGRTFTLYTMGWYRQAPGKERELVAAISARGGSTYYADSVKGRFTISRDNAKNTVYLQMNSLKPEDTAVYYCAAESNRLRYYYWGQGTQVTVSS", "polyreactivity (PSR sort gate)": "high polyreactivity"}
{"sequence": "QVQLLESGGGLVQAGGSLRLSCAASGRTLVGYAMGWYRQAPGTERELVAAITGSGGRTYYADSVKGRFTISRDNAKNTVYLQMNSLKPEDTAVYYCNKVYRVSSGAYLYDYWGQGTQVTVSS", "polyreactivity (PSR sort gate)": "high polyreactivity"}
{"sequence": "QVQLLESGGGLVQAGGSLRLSCAASGSIFTGNAMGWYRQAPGKERELVAAISSSGGSTYYADSVKGRFTISRDNAKNNVYLQMNSLKPEDTAVYYCAAYNYFLQYDYWGQGSQVTVSS", "polyreactivity (PSR sort gate)": "low polyreactivity"}
{"sequence": "QVQLLESGGGLVQAGGSLRLSCAASGSTFDWYVMGWYRQAPGKERELVAAINQGSGSTYYADSVKGRFTISRDNAKNTVYLQMNSLKPEDTAVYYCAADRYGAGYLYWPYDYWGQGTQVTVSS", "polyreactivity (PSR sort gate)": "low polyreactivity"}
{"sequence": "QVQLLESGGGLVQAGGSLRLSCAASGSTFGYYTMGWYRQAPGKERVLVAGISSGGSTNYADSVKGRFTISRDNAKNTVYLQMNSLKQEDTAVYYCDTGSYSYHRGYVTYARFGYWGQGTQVTVSS", "polyreactivity (PSR sort gate)": "low polyreactivity"}
{"sequence": "QVQLLESGGGLVQAGGSLRLSCAASGSTLARYTMGWSRQAPGKERELVATIDFGGVNTYYADSVKGRFTISRDNAKNTVYLQMNSLKPEDTAVYYCAVDNPFIWFFGPDEYWGQGTQVTVSS", "polyreactivity (PSR sort gate)": "low polyreactivity"}
{"sequence": "QVQLLESGGGLVQAGGSLRLSCAASGSTLKLNAMGWYRQAPGKDRELVAAITRSGGSTNYADSVKGRFTISRDNAKNTVSLQMNSLKPEDTAVYDCAADVLWDEFGYWGQGTQVTVSS", "polyreactivity (PSR sort gate)": "low polyreactivity"}
{"sequence": "QVQLLESGGGLVQAGGSLRLSCAASGSTLLQYAMGWYRQAPGKEREFVAAISASGARTYYADSVKGRFTISRDNAKNTVYLQMNSLKPEETAVYYCAALTQRSSFDYWGQGTQVTVSS", "polyreactivity (PSR sort gate)": "high polyreactivity"}
{"sequence": "QVQLLESGGGLVQAGGSLRLSCAASGTNFDYYLMGWYRQAPGKERELVAAISWSGASTYYADSVKGRFTISRDNAKNTVYLQMNSLKPEDSAVYYCAADYCVKTLIDYDYWGEGTQVTVSS", "polyreactivity (PSR sort gate)": "low polyreactivity"}
{"sequence": "QVQLLESGGGLVQAGGSLRLSCAASGYTFARYAMGWYRQAPGQERELVAAITSSGGSTYYADSVKGRFTISRDNAKNTVYLQMNSLKPEDTAVYYCNARGFQKSDPRGYLILNYWGQGTQVTVSS", "polyreactivity (PSR sort gate)": "high polyreactivity"}
{"sequence": "QVQLLESGGGLVQAGGSLRLSCAASRSTFPGYAMGWYRQAPGKETELVAAITWSGVTTYYADSVKGRFTISRDNAKYTVYLQMNSLKPEDTAVYYCATGTLYSDGAIYGYWGQGTQVTVSS", "polyreactivity (PSR sort gate)": "low polyreactivity"}
{"sequence": "QVQLLESGGGLVQAGGSLRLSCASSGRTFVRYGMGWSRQAPGKERELVAAITGSGSRTYYADSVKGRFTISRDNAKNTVYLQMNSLIPKDTAVYYCAGRGQGGAGDPRYPVYYWGQGTQVTVSS", "polyreactivity (PSR sort gate)": "high polyreactivity"}
{"sequence": "QVQLLESGGGLVQAGGSLRLSCASSGRTYWYYAMGWYRQAPGKERELVATITRSTGSTYYADSVKGRFTISRDNAKNTGYLQMNSLKPEDTAVYYCARLYYFNGDYWGQGTQVTVSS", "polyreactivity (PSR sort gate)": "high polyreactivity"}
{"sequence": "QVQLLESGGGLVQAGGSLRLSCASSGSIFFRNAMVWYRQAPGKEREYVAAITGSSVSTYYADSVKGRFTISRDNAKNTVYLQMNSLKPEDTAVYYCAVRKWIGYNPYDDWGQGTQVTVSS", "polyreactivity (PSR sort gate)": "high polyreactivity"}
{"sequence": "QVQLLESGGGLVQAGGSLRLSCMASGSILGDRMSWYRQAPGKEHELVATIYDGGITCYADSMKGRFTISRDNAKNTVYLQMNSLRPEDTAVYYCGASFEGYRYHVYCGQGTQVTVSS", "polyreactivity (PSR sort gate)": "low polyreactivity"}
{"sequence": "QVQLLESGGGLVQAGGSLRVSCAASGFTFSRNVMGWYRQAPGKERELVAAITSGSTYYADSVKGRFTISRDNAKNTVYLQMNRLKPEDTAVYYCAKRGRLRNYDYWGQGTQVTVSS", "polyreactivity (PSR sort gate)": "high polyreactivity"}
{"sequence": "QVQLLESGGGLVQAGGSRRLSCASSGITFAFYAMGWYRQAPGKESELVAAISWSGTRTYYADSVKGRFTISRDNAKNTVYLQMNRLKPEDTAVYYCAAVYQAGDKLYDYWGQGTQVTVSS", "polyreactivity (PSR sort gate)": "low polyreactivity"}
{"sequence": "QVQLLESGGGLVQARGSLRLSCAASARTIFKNAMAWYRQAPGKERELVARISWNGGDSTYYADSVTGRFTISRDNAKNTVYLQMNSLKPEDTAVYSCAADTSYRPGGSRQGYGYWGQGTQVTVSS", "polyreactivity (PSR sort gate)": "low polyreactivity"}
{"sequence": "QVQLLESGGGLVQPGGSLRLSCAASGSTFDSYVKGWYRKAPGKERELVAANSSDDSTYYADSVKGRFTISRDNAKNTVYLQMISLKPEDTAVYYCAATNFRDYYCSWNYYYWGQGTQVTVSS", "polyreactivity (PSR sort gate)": "low polyreactivity"}
{"sequence": "QVQLLESGGGLVQPGGSLRLSCAASGSTFIGYAMGWYRQAPGKETELVAAISWSGGRTYYADSVKGRFTISRDNAKNTVYLQMNSLKAEDTAVYYCNTVPYRISVQFNYWGQGTQVTVSS", "polyreactivity (PSR sort gate)": "high polyreactivity"}
{"sequence": "QVQLLESGGGLVQPGGSLRLSCAASGSTFYDYAMGWYRTAPGKEREFVADIYSNGGSTYYAHSVKGRFTISRDNANYTVYLQMNSLKPEDTAVYYCASVLRPRQGRRYDYWGQGTQVTVSS", "polyreactivity (PSR sort gate)": "low polyreactivity"}
{"sequence": "QVQLLESGGMVQAGGLRLSCAASGSVSYQEAMGWYRQAPGKERELVATISFGANTNYADSVKGRFTISRDNAKNTVYLQMNSLKPEDTAVYYCAAESLFYDYYGYWGQGTQVNVSS", "polyreactivity (PSR sort gate)": "low polyreactivity"}
{"sequence": "QVQLLESGGRLVQAGGSLRLSCAASGSTYNQYDMGWYRQAPGKERELVAAISTNGGRTYYADSVKGRFTISRDNAKNTVYLLMNSLKPEYTAVYYCNRAGRGRWSNMDHWGQGTQVTVSS", "polyreactivity (PSR sort gate)": "high polyreactivity"}
{"sequence": "QVQLLESGRGLVQEGGSLRLSCAASGFTFTAYAMGWYRQAPGKERELVAVISVRGGRTRYADSVKGRFTLSRDNAKNTVYLQMNSLKPEDTAVYYCDARYRPYSGSPQYDYWGQGTQVTVSS", "polyreactivity (PSR sort gate)": "high polyreactivity"}
{"sequence": "QVQLLESGVCLVQAGGSLRLSCAASGFTFGVYAMGWYRQAPGKERELVAAISTTVGSTYYADSVKGRFTISRDNAKKTVYLQMNSLKPEDTAVYYCAAEYTGYINYYIYEYWGQGTQVTVSS", "polyreactivity (PSR sort gate)": "low polyreactivity"}
{"sequence": "QVQLLESRGGLVQAGGSLRLSCPASGITFSRCAMGWYRQAPGKERELVAAITSGGRTNYADSVKGRFTISRDNATNTVYLQMISLKPEDTAVYYCAASYYYLSWRMDYWGQGTQVTVSS", "polyreactivity (PSR sort gate)": "high polyreactivity"}
{"sequence": "QVQLLESWGGLVQAGGSLRLSCAASGLIFYRNAMGWYRQAHGKERELVAAISVSGGSTYYADSVKGRFTISRDNAKNTVYLQMNRLKPEDTAVYYCAAKTWRSRGKEMDYWGQGTQVNVSS", "polyreactivity (PSR sort gate)": "high polyreactivity"}
{"sequence": "QVQLLETGGGLVQAGASLRLSCAASGSTFEDNAMGWYRQAPGKERELVAAITSGGNTYYADSVKGRFTIARDNAKNTVYLPMNSLKPEDTAVYYCNAVPFYYVFDYWGQGTQVTVSS", "polyreactivity (PSR sort gate)": "low polyreactivity"}
{"sequence": "QVQLLETGGGLVQAGGSLRLSCAASGSILRWYVRGWYRQAPGKERELVADIDSGGSTNYADSVKGRFTISRDNAKNTVFLQMNSLKPEDTAVYYCASDVPSRSRYGVYRRDGMDYWGQGTQVTVSS", "polyreactivity (PSR sort gate)": "low polyreactivity"}
{"sequence": "QVQLLETGGGLVQAGGSLRLSCAPSGGIFGFNAMGWYRQAPGKERELVADISDGVRTNYADSVKGLFTISRDNAKTTVYLQMNRLKPEDTAVYYCATDGLFYVDGSWTLGYWGQGTQVTVSS", "polyreactivity (PSR sort gate)": "low polyreactivity"}
{"sequence": "QVQLLETVGGLVQAGGSLRLSCASSGFTFGYYTMGWYRQAPGKERELVAAISSSGGRTYYADSVKGRFTISRDIAKNTVYLQMISLKPEDTALYYCNVYYISTDLYYWGQGTQVTVSS", "polyreactivity (PSR sort gate)": "high polyreactivity"}
{"sequence": "QVQLLQTGGGLVQAGGSLRLSCAASGRIFVVNAMGWNRLAPGKEREMVADISSGVSTNYADSVKGRFTISRDNAKNTVYLQMNILKPEDTALYYCNSRFRFRYKFPSRNSWGQGTLVTVSS", "polyreactivity (PSR sort gate)": "high polyreactivity"}
{"sequence": "QVQLLVTGGGLVQAGGTLRISCAASGSIFYSYAMGWYRQSPGKERELVAAITGGGSTNYADSVKGRFTISLDNAKNTVYLQMNSLKPEDTAVYYCATDLYPIGAVIRYDYWGQGTQVTVSS", "polyreactivity (PSR sort gate)": "low polyreactivity"}
{"sequence": "QVQLQDSGGGLEQAGGSLRMSCAANGNIFDADIVGRYRQAQGKKRELVASITDGGITNYADSVKGRFTISRDNAKYTVYLQMNSQNPEDTAVYYCAAIAYPDIPTYFDYDSDFFYWGQGTQVTVSS", "polyreactivity (PSR sort gate)": "high polyreactivity"}
{"sequence": "QVQLQDSGGGLVQAGGSLRLSCAASGTIFWYSDLGWYRQAPGKERKFVAGIGFGSNSNFADSVRGRFTISRDNAKNTVYLQMNSLKPEDTAVYYCAAVWFDYSTHRYWGQGTQVTVSS", "polyreactivity (PSR sort gate)": "high polyreactivity"}
{"sequence": "QVQLQDSGGRLVQAGGSLRLSCAASGYIFGSCSMGWFRQSPGKVRELVATINNGSSTYYADSVKGRITISRDNAKNSVYLQMNSLKPEDTAVYYCAVSLYRLTFFYYWGQGNQVTVSS", "polyreactivity (PSR sort gate)": "high polyreactivity"}
{"sequence": "QVQLQECGGGLVQAGGRLRLSCAASGNIFDADIMGWYRQAPGKERELVASVTDGGSTNYADSVKGRFTISRDNAKNTVYLQMISLTPEDTAVYYCAAIVYPDILTYFDYDYDYFYWGQGTQVTVGS", "polyreactivity (PSR sort gate)": "low polyreactivity"}
{"sequence": "QVQLQECGGGLVQEGGSLRLSCAASGTYSNSVKWLYCQAPGKEREFVATIGVGGSTNYADSVKGRFTISRDIAKNSVYLQMNSLKPDDTAVYHCSAYGAASNFHYYRGQGTQVTVSS", "polyreactivity (PSR sort gate)": "low polyreactivity"}
{"sequence": "QVQLQEGGGLVQAGGSLRLSCAASGYISSPPAMGWYRQAPGKERAFVATIADGTSTYYADSVKGRFTISRDNAKNTVYLQMNSLKTEDTEVYYCAAAYNTEFYLSYWGQGTQVTVIS", "polyreactivity (PSR sort gate)": "high polyreactivity"}
{"sequence": "QVQLQEGGGLVQAGGSLRLSCAASGYISSRPAMGWYRQAPRKERAFVATIADGTSTYYADSVKGRFTISRDNAKNTVYLQMNSLKPEDTAVYYCAAAYNTEFYLSYWGQGTQVTVSS", "polyreactivity (PSR sort gate)": "high polyreactivity"}
{"sequence": "QVQLQEGRGLVQAGGSLRLSSAASGYISSRPAMGWYRQAPCKERSFVATIADGTSTYYADSVKGRFTISRDNAINTVYLQMNSLKPEDTAVYYCAAAYNTEFYLSYWGQGTQVTVSC", "polyreactivity (PSR sort gate)": "high polyreactivity"}
{"sequence": "QVQLQERGDGLLQAVGSLRLSFAESGYISGYYYMGWYRQAPGKDRELVAGIDAFGSSTNYADCVKGRFTISRDNAKNTVYLEMNSLKPEDTAVYYCAASPDGERLFSYWGQGTQVTVSS", "polyreactivity (PSR sort gate)": "low polyreactivity"}
{"sequence": "QVQLQERGGGLVQAGGSLCLSCAASGTIFFDGDMGWYRQAPGKEREFVAAINPGGSAYYADSVKGRLPLAAITHTVYLQMNSLKPEDTAVYYCAAKLFDVYGYYYWGQGTHVTVSS", "polyreactivity (PSR sort gate)": "low polyreactivity"}
